This note sets out measurements from publication PMC9871560, “Truncated-semaphorin3A is a potential regulatory molecule to restore immune homeostasis in immune-mediated diseases” (Frontiers in Pharmacology, 2022).

The labels stand for the following.
B1: Parental semaphorin3A (P-sema3A) (ligand, human, UniProt Q14563 21-771, looked up)
chain: NYQNGKNNVPRLKLSYKEMLESNNVITFNGLANSSSYHTFLLDEERSRLYVGAKDHIFSFDLVNIKDFQKIVWPVSYTRRDECKWAGKDILKECANFIKVLKAYNQTHLYACGTGAFHPICTYIEIGHHPEDNIFKLENSHFENGRGKSPYDPKLLTASLLIDGELYSGTAADFMGRDFAIFRTLGHHHPIRTEQHDSRWLNDPKFISAHLISESDNPEDDKVYFFFRENAIDGEHSGKATHARIGQICKNDFGGHRSLVNKWTTFLKARLICSVPGPNGIDTHFDELQDVFLMNFKDPKNPVVYGVFTTSSNIFKGSAVCMYSMSDVRRVFLGPYAHRDGPNYQWVPYQGRVPYPRPGTCPSKTFGGFDSTKDLPDDVITFARSHPAMYNPVFPMNNRPIVIKTDVNYQFTQIVVDRVDAEDGQYDVMFIGTDVGTVLKVVSIPKETWYDLEEVLLEEMTVFREPTAISAMELSTKQQQLYIGSTAGVAQLPLHRCDIYGKACAECCLARDPYCAWDGSACSRYFPTAKRRTRRQDIRNGDPLTHCSDLHHDNHHGHSPEERIIYGVENSSTFLECSPKSQRALVYWQFQRRNEERKEEIRVDDHIIRTDQGLLLRSLQQKDSGNYLCHAVEHGFIQTLLKVTLEVIDTEHLEELLHKDDDGDGSKTKEMSNSMTPSQKVWYRDFMQLINHPNLNTMDEFCEQVWKRDRKQRRQRPGHTPGNSNKWKHLQENKKGRNRRTHEFERAPRSV
notes: human parental semaphorin3A; Secreted into the medium; The preparation holds monomer (~95 kDa), dimer (~160 kDa) and ~70 kDa fragments from cleavage by furin; also called parental sema3A; original sema3A; source: HEK293, serum-free culture medium, purified (Ni-NTA agarose)
B2: Truncated-sema3A (T-sema3A) (domain or fragment, human, UniProt Q14563 21-516, looked up)
chain: NYQNGKNNVPRLKLSYKEMLESNNVITFNGLANSSSYHTFLLDEERSRLYVGAKDHIFSFDLVNIKDFQKIVWPVSYTRRDECKWAGKDILKECANFIKVLKAYNQTHLYACGTGAFHPICTYIEIGHHPEDNIFKLENSHFENGRGKSPYDPKLLTASLLIDGELYSGTAADFMGRDFAIFRTLGHHHPIRTEQHDSRWLNDPKFISAHLISESDNPEDDKVYFFFRENAIDGEHCGKATHARIGQICKNDFGGHRSLVNKWTTFLKARLICSVPGPNGIDTHFDELQDVFLMNFKDPKNPVVYGVFTTSSNIFKGSAVCMYSMSDVRRVFLGPYAHRDGPNYQWVPYQGRVPYPRPGTCPSKTFGGFDSTKDLPDDVITFARSHPAMYNPVFPMNNRPIVIKTDVNYQFTQIVVDRVDAEDGQYDVMFIGTDVGTVLKVVSIPKETWYDLEEVLLEEMTVFREPTAISAMELSTKQQQLYIGSTAGVAQLPLHR
notes: signal peptide in the construct; human semaphorin3A, amino acids 1-516 of the parental sema3A, with S257C to make an artificial disulfide dimerization site; Secreted into the medium; Without reducing agent it runs as a homodimer (~140 kDa double band) together with some monomer (~68 kDa); also called truncated semaphorin3A; source: HEK293 stably expressing (lentiviral vector NSPI), serum-free …

Data set [1] deals with the molecule itself. Put plainly: SDS-PAGE without reducing agent, immunoblot; purified proteins on SDS-PAGE with or without dithiothreitol, immunoblotted with polyclonal goat anti-human sema3A; monomer to disulfide-linked dimer.
Data set [2] addresses B1. Put plainly: ELISA; homemade ELISA; 5 ug/mL purified CD72 coated on a MaxiSorp plate overnight at 4 C; 0-25 ug/mL purified P- or T-sema3A added for 3 h at 4 C; detected with polyclonal goat anti-sema3A and anti-goat HRP; Kd from the one site total binding equation (GraphPad Prism). Conditions: both partners purified.
The target of data set [3] is B2. Described as above. Conditions: both partners purified.

Usually stoichiometry N stands for a count of units in the complex or per binding partner. By Kd is commonly meant the concentration at which binding is half-saturated.

As to B1, the “stoichiometry N” value in data set [1] is 2.

For B2, in data set [1], the “stoichiometry N” value was found to be 2.

B3: CD72 recombinant protein, extracellular part (amino acids 117-359) (domain or fragment, UniProt P21854 117-359, looked up)
chain: RYLQVSQQLQQTNRVLEVTNSSLRQQLRLKITQLGQSAEDLQGSRRELAQSQEALQVEQRAHQAAEGQLQACQADRQKTKETLQSEEQQRRALEQKLSNMENRLKPFFTCGSADTCCPSGWIMHQKSCFYISLTSKNWQESQKQCETLSSKLATFSEIYPQSHSYYFLNSLLPNGGSGNSYWTGLSSNKDWKLTDDTQRTRTYAQSSKCNKVHKTWSWWTLESESCRSSLPYICEMTAFRFPD
notes: CD72, extracellular part, amino acids 117-359; source: HEK293 stably expressing (lentiviral vector NSPI), purified (Ni-NTA agarose)
In the case of B3, the dissociation constant (Kd) is roughly 7.3 nM in data set [2] and roughly 4.85 nM in data set [3].
